The target in this experiment is HCV1406 TCR. Put plainly: SPR; steady-state titration; TCR amine coupled to the sensor surface (1000-5000 RU), peptide/HLA-A2 injected at increasing concentrations, 5 μL/min, 25 °C, HBS-EP (10 mM HEPES, 150 mM NaCl, 3 mM EDTA, 0.005% surfactant P20, pH 7.4); 1:1 model; mutants globally fit alongside wild type with a shared RUmax. Background: SPR reads the build-up and loss of mass on a sensor chip optically.

One may read the Kd as the free concentration of one partner at which half of the binding sites on the other are occupied at equilibrium, for simple one-to-one binding. Low values mean a tighter complex, high ones a looser complex.

In turn, “NS3/HLA-A2 with Arg65 of HLA-A2 mutated to alanine (from UniProt P61769 21-119) (peptide-MHC)” yielded a dissociation constant (Kd) greater than 1500 µM.
